Measured values taken from patent US20220040319A1 (Regeneron, published 2022).

B1: H4H13309P2 (antibody, human IgG4, V domains shown)
VH: QVQLVQSGTEVKEPGASVKVSCKASGYSFTTYGISWLRQAPGQGLEWMGWISTYNGDTISAQMLQDRVTLTADTSTRTAYMELRSLRSDDTAVYYCARGHEYDSLVYSYWGQGTLVTVSS
VL: not shown
notes: human IgG4 Fc (H4H), bivalent monospecific
B2: H4H13311P2 (antibody, human IgG4, V domains shown)
VH: QVQLVESGGGVVQPGRSLRLSCAASGFTFSSYAMHWVRQAPGRGLEWVAVIWHDGDVEYYVDSVKDRFTISRDNSKSTLYLQMNSLRAEDTALYYCAREAWDLLRPFDYWGQGTLVTVSS
VL: not shown
notes: as for B1
B3: H4H16445D (bispecific antibody, human IgG4, V domains shown)
VH 1: QVQLVESGGGVVQPGGSLRLSCAASGFTFSGYGMHWVRQAPGKGLEWMAVIWYDGSNDYYPDSVKGRFTISRDNSKNTLYLQMNSLRVEDTAVYYCARDAWDLLRSFDYWGQGTLVTVSS
VH 2: EVQLVESGGGLVQPGGSLRLSCAASGFIVTTNYMTWLRQAPGKGLEWVSLIYSSGHTYYADSVKGRFTISRHNSKNTLYLQMDSLRAEDTAVYYCASAFAADVFDIWGQGTMVTVSS
VL: not shown
B4: H4H16446D (bispecific antibody, human IgG4, V domains shown)
VH 1: QVQLVESGGGVVQPGRSLRLSCAVSGFTFSSYGMHWVRQAPGKGLEWVANIWYDGTNDYYPYSVKGRFTISRDNSQNTLYLQMNSLRAEDTAVYYCAREDFINYRSFDYWGQGTLVTVSS
VH 2: B3 VH 2
VL: not shown
B5: H4H16447D (bispecific antibody, human IgG4, V domains shown)
VH 1: B2 VH
VH 2: B3 VH 2
VL: not shown
B6: H4H16448D (bispecific antibody, human IgG4, V domains shown)
VH 1: QVQLVESGGGVVQPGRSLRLSCVASGFSFSNFGMHWVRQAPGKGLEWVAIIWYDGSNKYYSDSVKGRFTISRDNSKNTLYLQMNSLRVDDTAVYYCARFDRWKFDAFDIWGQGTMVTVSS
VH 2: B3 VH 2
VL: not shown
B7: H4H16449D (bispecific antibody, human IgG4, V domains shown)
VH 1: QVQLVESGGGVVQPGRSLRLSCAASGFTFSSFAMHWVRQAPGKGLEWVAVIWYDGSNDYYAASVKGRFTISRDNSKNTLYLEMNRLRAEDTAVYHCARDNWNYWGGMDVWGQGTTVTVSS
VH 2: B3 VH 2
VL: not shown
B8: H4H13290P2 (antibody, human IgG4, V domains shown)
VH: QVQLQESGPGLVKPSETLSLTCTVSGDSISSYYWTWIRQPPGKGLEWIGYIFYRGGTTYNPSLKSRVTISVDTSKNQFSLKLRSVTAADTAVYYCARGDDLLVVTSVYWYIDLWGRGTLVTVSS
VL: not shown
notes: as for B1

How the values were obtained:
[1] = biological target: T1, hMet.mmh (human MET extracellular domain with C-terminal myc-myc-hexahistidine tag) (human, UniProt P08581 309-914; P08581 27-307); test: SPR 37C, antibody captured
T1 construct: soluble monomeric MET; also called monomeric human MET
Description: (§1) The anti-Met antibodies tested in this example were bivalent monospecific binders of MET.
(§2) Kinetic association (kₐ) and dissociation (kd) rate constants were determined by fitting the real-time sensorgrams to a 1:1 binding model using Scrubber 2.0c curve fitting software. Binding dissociation equilibrium constant (KD) and dissociative half-life (t1/2) were calculated from the kinetic rate constants as: […]

[2] = biological target: T2, hMET.mFc (dimeric human MET) (human, UniProt P08581 27-307); test: SPR 37C, antibody captured
T2 construct: soluble dimeric MET protein
Description: as §1, §2

[3] = biological target: human MET on cells (human, UniProt P08581 25-1390); test: cell-based or functional assay; for % Inhibition, HEK293/SRE-Luc Blocking Activity (HGF, 1 h mAb pre-bind): test concentration or dose not given here
human MET on cells, sequence (P08581 25-1390 limits assumed, form in doubt): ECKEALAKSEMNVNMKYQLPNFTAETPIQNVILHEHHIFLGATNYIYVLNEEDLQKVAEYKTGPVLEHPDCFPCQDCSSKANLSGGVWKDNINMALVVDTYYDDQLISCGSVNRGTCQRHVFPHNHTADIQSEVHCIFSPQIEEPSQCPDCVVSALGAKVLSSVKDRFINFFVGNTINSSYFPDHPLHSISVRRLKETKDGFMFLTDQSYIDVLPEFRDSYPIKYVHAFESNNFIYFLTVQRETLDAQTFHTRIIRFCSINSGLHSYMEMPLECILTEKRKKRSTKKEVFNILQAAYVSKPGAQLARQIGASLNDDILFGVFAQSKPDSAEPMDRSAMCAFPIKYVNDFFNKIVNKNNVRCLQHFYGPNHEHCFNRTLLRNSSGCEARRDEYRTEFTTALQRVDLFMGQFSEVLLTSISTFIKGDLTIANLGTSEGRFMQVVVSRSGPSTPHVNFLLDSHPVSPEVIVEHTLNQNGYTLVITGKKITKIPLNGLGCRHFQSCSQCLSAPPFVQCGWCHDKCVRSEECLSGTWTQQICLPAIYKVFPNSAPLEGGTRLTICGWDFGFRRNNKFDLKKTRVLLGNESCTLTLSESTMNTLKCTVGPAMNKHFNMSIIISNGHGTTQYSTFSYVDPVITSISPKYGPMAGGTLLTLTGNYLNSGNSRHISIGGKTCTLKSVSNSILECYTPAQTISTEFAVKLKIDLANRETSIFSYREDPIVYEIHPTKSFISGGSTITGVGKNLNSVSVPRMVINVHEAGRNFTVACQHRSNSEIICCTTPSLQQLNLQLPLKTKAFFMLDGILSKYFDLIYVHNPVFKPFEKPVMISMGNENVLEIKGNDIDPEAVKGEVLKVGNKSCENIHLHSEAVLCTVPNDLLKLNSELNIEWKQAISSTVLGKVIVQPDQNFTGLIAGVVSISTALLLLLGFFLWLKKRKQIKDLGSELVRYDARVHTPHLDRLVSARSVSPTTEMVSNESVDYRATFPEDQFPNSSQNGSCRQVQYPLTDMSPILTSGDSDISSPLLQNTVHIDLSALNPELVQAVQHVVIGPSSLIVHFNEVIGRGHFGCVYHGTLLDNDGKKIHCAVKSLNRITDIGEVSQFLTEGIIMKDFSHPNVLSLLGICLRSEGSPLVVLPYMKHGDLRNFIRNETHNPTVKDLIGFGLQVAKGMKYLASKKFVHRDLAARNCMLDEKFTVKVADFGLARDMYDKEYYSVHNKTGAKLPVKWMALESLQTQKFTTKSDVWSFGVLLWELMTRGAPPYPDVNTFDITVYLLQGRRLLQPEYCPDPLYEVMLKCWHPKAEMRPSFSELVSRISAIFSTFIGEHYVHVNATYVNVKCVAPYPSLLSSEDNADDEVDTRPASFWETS

T1 sequence (P08581 other isoform, or with tags, fused parts or gaps limits assumed, chain 1 of 2): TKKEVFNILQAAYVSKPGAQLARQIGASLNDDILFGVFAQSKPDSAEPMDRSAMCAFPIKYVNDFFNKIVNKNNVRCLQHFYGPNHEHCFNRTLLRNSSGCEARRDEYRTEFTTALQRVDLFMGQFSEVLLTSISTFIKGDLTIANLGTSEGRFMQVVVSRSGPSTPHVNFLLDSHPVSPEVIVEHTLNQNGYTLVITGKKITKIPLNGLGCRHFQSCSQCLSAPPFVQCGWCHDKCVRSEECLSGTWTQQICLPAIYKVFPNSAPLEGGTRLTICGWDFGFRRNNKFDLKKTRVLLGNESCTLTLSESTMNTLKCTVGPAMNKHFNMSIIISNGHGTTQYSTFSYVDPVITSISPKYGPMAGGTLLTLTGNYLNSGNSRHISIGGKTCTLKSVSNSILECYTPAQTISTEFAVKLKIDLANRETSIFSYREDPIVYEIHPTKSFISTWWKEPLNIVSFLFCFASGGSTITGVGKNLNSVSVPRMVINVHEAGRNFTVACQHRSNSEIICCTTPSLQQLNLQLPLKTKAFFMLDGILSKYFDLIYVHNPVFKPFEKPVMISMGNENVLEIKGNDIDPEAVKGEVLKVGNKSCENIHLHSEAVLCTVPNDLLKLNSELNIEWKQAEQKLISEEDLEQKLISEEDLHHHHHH
T1 sequence (P08581 27-307 limits assumed, chain 2 of 2): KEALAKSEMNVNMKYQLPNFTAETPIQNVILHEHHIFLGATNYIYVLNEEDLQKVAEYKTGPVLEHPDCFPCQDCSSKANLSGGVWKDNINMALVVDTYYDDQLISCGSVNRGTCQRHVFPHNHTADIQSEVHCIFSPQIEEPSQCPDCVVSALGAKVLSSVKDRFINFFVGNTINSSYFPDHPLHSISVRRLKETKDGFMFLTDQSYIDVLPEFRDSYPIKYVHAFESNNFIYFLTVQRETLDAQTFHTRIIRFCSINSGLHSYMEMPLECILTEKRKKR
T2 sequence (P08581 other isoform, or with tags, fused parts or gaps limits assumed, chain 1 of 2): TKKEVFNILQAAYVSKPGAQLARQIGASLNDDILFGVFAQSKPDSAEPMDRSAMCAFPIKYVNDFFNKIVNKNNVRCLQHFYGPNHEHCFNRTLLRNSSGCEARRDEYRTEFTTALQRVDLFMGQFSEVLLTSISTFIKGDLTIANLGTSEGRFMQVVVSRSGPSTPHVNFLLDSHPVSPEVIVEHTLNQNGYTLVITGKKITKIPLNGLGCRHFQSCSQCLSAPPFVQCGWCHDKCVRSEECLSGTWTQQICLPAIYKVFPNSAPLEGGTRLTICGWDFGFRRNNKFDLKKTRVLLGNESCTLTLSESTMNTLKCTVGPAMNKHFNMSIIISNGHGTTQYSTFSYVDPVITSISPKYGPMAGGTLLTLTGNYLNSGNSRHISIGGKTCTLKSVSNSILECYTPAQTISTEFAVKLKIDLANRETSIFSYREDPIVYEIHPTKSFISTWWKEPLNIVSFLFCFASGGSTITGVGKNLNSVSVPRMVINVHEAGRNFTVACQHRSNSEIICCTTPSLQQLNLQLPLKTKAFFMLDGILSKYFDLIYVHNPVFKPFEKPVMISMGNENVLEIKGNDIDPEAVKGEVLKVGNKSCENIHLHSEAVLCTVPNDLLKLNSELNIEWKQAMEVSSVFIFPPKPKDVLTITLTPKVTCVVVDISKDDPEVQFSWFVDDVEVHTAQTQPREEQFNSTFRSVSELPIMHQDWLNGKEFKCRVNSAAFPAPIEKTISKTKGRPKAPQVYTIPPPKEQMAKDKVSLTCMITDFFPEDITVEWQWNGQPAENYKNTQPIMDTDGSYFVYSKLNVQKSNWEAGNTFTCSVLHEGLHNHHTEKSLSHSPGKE
T2 sequence (P08581 27-307 limits assumed, chain 2 of 2): as the sequence (P08581 27-307 limits assumed, chain 2 of 2) above

Row | Binder | Kd [1] [nM] | T½ [1] [min] | koff [1] [s⁻¹] | kon [1] [M⁻¹ s⁻¹] | Kd [2] [nM] | T½ [2] [min] | koff [2] [s⁻¹] | kon [2] [M⁻¹ s⁻¹] | % Inhibition, HEK293/SRE-Luc Blocking Activity (HGF, 1 h mAb pre-bind) [3] [%] | EC50, Ligand (HGF)-Independent HEK293/SRE-Luc Activation [3] [nM] | Fold Response, Ligand (HGF)-Independent HEK293/SRE-Luc Activation [3] [fold] | IC50, HEK293/SRE-Luc Blocking Activity (HGF, 1 h mAb pre-bind) [3] [nM]
1 | B1 | 6.38 | 19.7 | 0.000587 | 92000 | 0.657 | 43.3 | 0.000267 | 406000 | – | – | – | –
2 | B2 | 116 | 2.2 | 0.00519 | 44800 | 1.55 | 24.7 | 0.000468 | 302000 | – | – | – | –
3 | B3 | – | – | – | – | – | – | – | – | 81 | 1 | 4.3 | 0.52
4 | B4 | – | – | – | – | – | – | – | – | 83 | 1.4 | 4 | 1
5 | B5 | – | – | – | – | – | – | – | – | 76 | 1.4 | – | –
6 | B6 | – | – | – | – | – | – | – | – | 87 | 0.91 | 4.3 | 0.62
7 | B7 | – | – | – | – | – | – | – | – | 85 | 0.42 | 4.2 | 0.32
8 | B8 | 3.17 | 14.4 | 0.000803 | 253000 | 0.513 | 36.6 | 0.000315 | 615000 | – | – | – | –
